Usually EC50 stands for the concentration that produces a half-maximal response. The low end stands for an effect from little substance, the high end for a need for much substance.

In article PMC12229607 one finds EC50 data, which are given here for two substances.

This test deals with human Fc gamma receptor FcγRIIIa, V158 allotype (human). Put plainly: ELISA. In general terms: ELISA stands for enzyme-linked immunosorbent assay.
Sequence of human Fc gamma receptor FcγRIIIa, V158 allotype (human) (P08637 17-208): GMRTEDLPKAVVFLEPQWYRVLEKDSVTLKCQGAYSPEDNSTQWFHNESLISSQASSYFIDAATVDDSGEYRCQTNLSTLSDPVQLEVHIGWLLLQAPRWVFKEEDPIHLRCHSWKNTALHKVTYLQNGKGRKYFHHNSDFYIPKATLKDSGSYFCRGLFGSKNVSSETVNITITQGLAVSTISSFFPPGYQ

commercial trastuzumab (antibody) showed an EC50 of 5.4 nM.
The value for “G2-hinge-Fc (E. coli-derived human IgG1 hinge-Fc bearing the G2 glycoform) (domain or fragment)” was 28.5 nM.
